Experimental findings from US20230381328A1, “COMPOUND FOR THE PREVENTION OR TREATMENT OF MYASTHENIA GRAVIS” (ABLEVIA BIOTECH GMBH, priority 2020, published 2023) are described below.

Where no end group is shown, it is not given here.

The target of this assay is monoclonal antibody mAB 198. As to the kind of experiment: peptide microarray, fluorescence, cyclic peptide.

Regarding GGSLRVNPADY (also: cyclic peptide, mode of cyclisation not given here), the relative signal [%] stood at 22.5%.

Molecule RLRFNPADY (also: cyclic peptide, ring type and places not given here) displayed a relative signal [%] of 21.3%.

For the molecule SLRYNPADY (also: cyclic peptide, mode of cyclisation not given here), the relative signal [%] worked out at 12.2%.

Take DVRLRFNPADY (also: cyclic peptide, mode of cyclisation not given here): the relative signal [%] worked out at 27.7%.

Turning to LRLNPADYG (also: cyclic peptide, mode of cyclisation not given here), the relative signal [%] was 28.6%.

With NPADYRG (also: cyclic peptide, ring type and places not given here) [NPADYRG, cyclic mimotope], the relative signal [%] is 27.4%.

Consider GSLRWNPADYR (also: cyclic peptide, mode of cyclisation not given here), for which the relative signal [%] was determined as 16.2%.

WNPADYR (also: cyclic peptide, mode of cyclisation not given here) [WNPADYR, cyclic mimotope] displayed a relative signal [%] of 24.9%.

The molecule GNPADYGGI (also: cyclic peptide, mode of cyclisation not given here) came in with a relative signal [%] of 13.7%.

Take NPADYGR (also: cyclic peptide, ring type and places not given here) [NPADYGR, cyclic mimotope]: the relative signal [%] was 19.5%.

In turn, GSLRWNPADYP (also: cyclic peptide, mode of cyclisation not given here) gave a relative signal [%] of 12.4%.

As to GGGSLRRNPAD (also: cyclic peptide, mode of cyclisation not given here), the relative signal [%] is 12.5%.

With GGSLRGNPADY (also: cyclic peptide, mode of cyclisation not given here), the relative signal [%] turned out to be 19.6%.

For the molecule VNPADYG (also: cyclic peptide, mode of cyclisation not given here) [VNPADYG, cyclic mimotope], the relative signal [%] was found to be 12.5%.

As for SLRGNPADY (also: cyclic peptide, ring type and places not given here), the relative signal [%] stood at 15.4%.

With RLRYNPADY (also: cyclic peptide, ring type and places not given here), the relative signal [%] was 24.5%.

Molecule LRRNPAD (also: cyclic peptide, mode of cyclisation not given here) [LRRNPAD, cyclic mimotope] yielded a relative signal [%] of 28.2%.

Consider WNPADYP (also: cyclic peptide, mode of cyclisation not given here) [WNPADYP, cyclic mimotope], for which the relative signal [%] is 21.1%.

In the case of NPADYGD (also: cyclic peptide, mode of cyclisation not given here) [NPADYGD, cyclic mimotope], the relative signal [%] was 12.6%.

In the case of RINPADYGG (also: cyclic peptide, ring type and places not given here), the relative signal [%] amounted to 23.1%.

For SLRFNPADY (also: cyclic peptide, ring type and places not given here), the relative signal [%] is 13.6%.

The molecule RPRWNPADY (also: cyclic peptide, ring type and places not given here) registered a relative signal [%] of 12.4%.

The molecule RLYWNPADY (also: cyclic peptide, ring type and places not given here) registered a relative signal [%] of 13.7%.

With SLRLNPADY (also: cyclic peptide, mode of cyclisation not given here), the relative signal [%] came out at 21.8%.

NPADYGH (also: cyclic peptide, mode of cyclisation not given here) [NPADYGH, cyclic mimotope] registered a relative signal [%] of 15.8%.

In turn, RPNPADY (also: cyclic peptide, ring type and places not given here) [RPNPADY, cyclic mimotope] came in with a relative signal [%] of 15.6%.

For the molecule LRRNPADYG (also: cyclic peptide, mode of cyclisation not given here), the relative signal [%] came to 23.4%.

With DVRLRGNPADY (also: cyclic peptide, mode of cyclisation not given here), the relative signal [%] was 25%.

Molecule RGNPADY (also: cyclic peptide, ring type and places not given here) [RGNPADY, cyclic mimotope] showed a relative signal [%] of 23.8%.

Regarding RTNPADY (also: cyclic peptide, ring type and places not given here) [RTNPADY, cyclic mimotope], the relative signal [%] was determined as 14.6%.

Molecule RYNPADY (also: cyclic peptide, ring type and places not given here) [RYNPADY, cyclic mimotope] came in with a relative signal [%] of 20.2%.

The molecule LRINPADYG (also: cyclic peptide, mode of cyclisation not given here) came in with a relative signal [%] of 22.8%.

Consider SLRVNPADY (also: cyclic peptide, mode of cyclisation not given here), for which the relative signal [%] worked out at 26.5%.

As for SLRINPADY (also: cyclic peptide, mode of cyclisation not given here), the relative signal [%] was determined as 28%.

Molecule VRLRRNPAD (also: cyclic peptide, mode of cyclisation not given here) yielded a relative signal [%] of 14.7%.

The molecule RVNPADY (also: cyclic peptide, ring type and places not given here) [RVNPADY, cyclic mimotope] yielded a relative signal [%] of 18.7%.

On to GGSLRFNPADY (also: cyclic peptide, mode of cyclisation not given here), for which the relative signal [%] came out at 14.5%.

For RGNPADYGG (also: cyclic peptide, ring type and places not given here), the relative signal [%] is 22.2%.

GGSLRINPADY (also: cyclic peptide, mode of cyclisation not given here) returned a relative signal [%] of 25.4%.

LRWNPADYP (also: cyclic peptide, mode of cyclisation not given here) came in with a relative signal [%] of 13.1%.

Consider RRNPADY (also: cyclic peptide, ring type and places not given here) [RRNPADY, cyclic mimotope], for which the relative signal [%] stood at 23.5%.

Molecule RLRINPADY (also: cyclic peptide, ring type and places not given here) gave a relative signal [%] of 25.5%.

Molecule DVRLRPNPADY (also: cyclic peptide, mode of cyclisation not given here) yielded a relative signal [%] of 21.3%.

The molecule VRLRVNPADYG (also: cyclic peptide, mode of cyclisation not given here) yielded a relative signal [%] of 13.4%.
